Assay results reported in patent EP3916006A1.

What was measured:
[1] = biological target: calcium sensing receptor (UniProt Q9QY96); assay: cell-based or functional assay
[2] = biological target: GPR93 (UniProt Q149R9); assay: cell-based or functional assay
UniProt Q149R9, sequence (Q149R9 whole entry): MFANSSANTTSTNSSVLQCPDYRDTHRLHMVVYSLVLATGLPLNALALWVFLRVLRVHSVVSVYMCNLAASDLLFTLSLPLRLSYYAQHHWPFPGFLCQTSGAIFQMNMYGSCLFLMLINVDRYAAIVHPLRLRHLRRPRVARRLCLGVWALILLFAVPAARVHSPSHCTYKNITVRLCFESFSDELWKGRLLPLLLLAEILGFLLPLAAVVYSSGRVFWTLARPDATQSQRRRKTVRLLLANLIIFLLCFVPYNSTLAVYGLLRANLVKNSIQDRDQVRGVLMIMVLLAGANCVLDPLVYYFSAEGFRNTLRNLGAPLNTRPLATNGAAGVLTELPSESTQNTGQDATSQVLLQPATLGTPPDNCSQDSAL

UniProt Q9QY96, sequence (Q9QY96 20-1079 limits assumed): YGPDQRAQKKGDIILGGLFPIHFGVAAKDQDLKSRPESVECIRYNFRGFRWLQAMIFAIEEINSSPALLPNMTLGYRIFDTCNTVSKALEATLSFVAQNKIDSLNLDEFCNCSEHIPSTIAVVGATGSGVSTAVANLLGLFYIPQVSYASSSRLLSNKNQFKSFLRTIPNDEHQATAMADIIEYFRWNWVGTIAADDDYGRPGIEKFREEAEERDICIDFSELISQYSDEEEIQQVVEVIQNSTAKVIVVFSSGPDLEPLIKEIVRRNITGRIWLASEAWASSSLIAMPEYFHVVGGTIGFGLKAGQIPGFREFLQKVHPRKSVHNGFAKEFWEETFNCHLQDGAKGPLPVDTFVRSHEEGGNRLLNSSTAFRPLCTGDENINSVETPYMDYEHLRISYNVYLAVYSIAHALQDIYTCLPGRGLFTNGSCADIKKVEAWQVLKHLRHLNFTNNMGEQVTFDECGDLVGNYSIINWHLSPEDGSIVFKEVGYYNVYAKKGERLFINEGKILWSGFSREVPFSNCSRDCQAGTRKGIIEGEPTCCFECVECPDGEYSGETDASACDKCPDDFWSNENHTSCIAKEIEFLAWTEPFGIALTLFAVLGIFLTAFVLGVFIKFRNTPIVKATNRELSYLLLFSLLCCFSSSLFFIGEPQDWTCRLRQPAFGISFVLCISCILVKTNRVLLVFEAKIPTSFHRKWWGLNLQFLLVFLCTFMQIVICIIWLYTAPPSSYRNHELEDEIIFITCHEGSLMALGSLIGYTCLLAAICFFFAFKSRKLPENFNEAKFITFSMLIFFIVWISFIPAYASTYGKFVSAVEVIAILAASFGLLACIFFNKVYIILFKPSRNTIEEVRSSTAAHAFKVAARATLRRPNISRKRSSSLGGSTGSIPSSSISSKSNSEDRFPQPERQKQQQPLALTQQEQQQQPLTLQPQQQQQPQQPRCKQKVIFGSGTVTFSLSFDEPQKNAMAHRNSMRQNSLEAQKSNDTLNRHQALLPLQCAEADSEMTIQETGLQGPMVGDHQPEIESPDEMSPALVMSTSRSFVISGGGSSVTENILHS

CCK secretion by STC-1 cells (ELISA), peptide at 0.125 mM with NPS2143 at 6 µM (198 pM with vehicle) [1]: 88 pM
CCK secretion by STC-1 cells (ELISA), peptide at 0.125 mM with TC LPA5 4 at 4 µM (198 pM with vehicle) [2]: 111 pM
Substance: synthetic peptide SEQ ID NO: 5 90RYLGYLE96, derived from αs1-casein
